In publication PMC11996676:

Molecular target: aPKCι kinase domain (residues 248–596), fully primed (human), P41743
Assay: fluorescence polarisation; fluorescence anisotropy; Llgl1 P-site peptide and aPKCι kinase domain (2P, pT412 and pT564); apparent Kd

aPKCι kinase domain (residues 248–596), fully primed (human), P41743, sequence (P41743 248-596): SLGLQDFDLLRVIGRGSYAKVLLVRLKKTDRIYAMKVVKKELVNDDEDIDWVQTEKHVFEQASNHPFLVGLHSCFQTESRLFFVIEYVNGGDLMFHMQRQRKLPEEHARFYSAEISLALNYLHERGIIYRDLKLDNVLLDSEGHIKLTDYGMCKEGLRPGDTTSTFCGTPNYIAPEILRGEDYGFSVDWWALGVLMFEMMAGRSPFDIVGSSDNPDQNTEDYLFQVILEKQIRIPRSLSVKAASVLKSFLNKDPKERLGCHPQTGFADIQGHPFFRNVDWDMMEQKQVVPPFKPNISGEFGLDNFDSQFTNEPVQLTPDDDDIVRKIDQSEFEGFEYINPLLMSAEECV

A Kd of 48 nM was found for LAMEGPLSRVKSLKKSLRQSFRRIRKSRV (modifications not checked) [Llgl1 P-site peptide] in this work.
